Molecular target: T1, dansyl-Gly-Trp-Gly or dansyl-Gly-Tyr-Gly (Rattus norvegicus, UniProt P07861)
T1 construct: made in house; host or cells: human embryonic kidney (293) cells (pCISrENK); also rabbit reticulocyte lysate in vitro translation (prENKsense)
T1 sequence (P07861 1-750): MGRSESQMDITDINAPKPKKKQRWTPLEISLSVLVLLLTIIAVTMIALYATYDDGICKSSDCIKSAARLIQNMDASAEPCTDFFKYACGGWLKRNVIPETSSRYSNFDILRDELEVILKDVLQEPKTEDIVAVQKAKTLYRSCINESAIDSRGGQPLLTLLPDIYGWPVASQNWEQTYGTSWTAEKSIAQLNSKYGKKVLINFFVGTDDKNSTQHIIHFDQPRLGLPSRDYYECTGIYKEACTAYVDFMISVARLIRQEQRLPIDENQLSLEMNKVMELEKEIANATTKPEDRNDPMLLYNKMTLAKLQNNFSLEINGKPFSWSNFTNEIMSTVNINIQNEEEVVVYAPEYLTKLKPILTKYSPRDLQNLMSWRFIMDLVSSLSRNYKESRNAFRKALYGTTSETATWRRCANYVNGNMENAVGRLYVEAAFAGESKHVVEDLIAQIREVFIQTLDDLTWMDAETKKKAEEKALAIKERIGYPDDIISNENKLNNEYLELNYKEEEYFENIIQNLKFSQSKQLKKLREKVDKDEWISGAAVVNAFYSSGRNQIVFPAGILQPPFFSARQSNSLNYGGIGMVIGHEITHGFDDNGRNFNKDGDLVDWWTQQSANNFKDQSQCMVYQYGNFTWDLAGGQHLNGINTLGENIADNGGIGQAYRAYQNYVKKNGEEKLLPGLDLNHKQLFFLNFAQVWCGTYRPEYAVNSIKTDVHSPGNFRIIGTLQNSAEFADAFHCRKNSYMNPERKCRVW
Experiment: Enkephalinase activity of expressed rat enkephalinase material
Assay type: biochemical
Conditions: rat enkephalinase cDNA expression products
Source text: An assay using novel fluorescent substrates for enkephalinase was developed to assess whether enkephalinase is expressed. This assay is based on the disappearance of energy transfer between a tryptophan or a tyrosine residue and the 5-dimethylaminonaphthalene-1-sulfonyl group (dansyl) in the substrates dansyl-Gly-Trp-Gly or dansyl-Gly-Tyr-Gly upon hydrolysis of their Gly-Trp or Gly-Tyr amide bond by enkephalinase. No significant difference in Km or kcat values were found for dansyl-Gly-Trp-Gly and dansyl-Gly-Tyr-Gly as the active site of enkephalinase appears to accommodate tryptophan residues similarly to tyrosine. The tryptophan and tyrosine containing substrates can be used for continuous recording of enkephalinase activity. […]
Fluorescence measurements were made using a Perkin Elmer, model 650-10S spectrofluorometer, equipped with a temperature controlled cell-holder, maintained at 37° C. […] The 600 μl mixture was transferred into a quartz cuvette, and fluorescence measured. […] The fluorescence in the incubation media could thus be related to the amounts of hydrolyzed substrates. […] Ten μl of purified rat kidney enkephalinase was added and the increase in tryptophan or tyrosine fluorescence was continuously monitored (excitation=280 nm, emission=360 nm for tryptophan, excitation 277, emission 315 for tyrosine). […] Under these conditions, tryptophan fluorescence was stable for over 2 hr.

B1: pCISrENK: rat enkephalinase expressed from plasmid pCISrENK in human embryonic kidney (293) cells and purified (protein, UniProt P07861 2-750, looked up)
Neprilysin: GRSESQMDITDINAPKPKKKQRWTPLEISLSVLVLLLTIIAVTMIALYATYDDGICKSSDCIKSAARLIQNMDASAEPCTDFFKYACGGWLKRNVIPETSSRYSNFDILRDELEVILKDVLQEPKTEDIVAVQKAKTLYRSCINESAIDSRGGQPLLTLLPDIYGWPVASQNWEQTYGTSWTAEKSIAQLNSKYGKKVLINFFVGTDDKNSTQHIIHFDQPRLGLPSRDYYECTGIYKEACTAYVDFMISVARLIRQEQRLPIDENQLSLEMNKVMELEKEIANATTKPEDRNDPMLLYNKMTLAKLQNNFSLEINGKPFSWSNFTNEIMSTVNINIQNEEEVVVYAPEYLTKLKPILTKYSPRDLQNLMSWRFIMDLVSSLSRNYKESRNAFRKALYGTTSETATWRRCANYVNGNMENAVGRLYVEAAFAGESKHVVEDLIAQIREVFIQTLDDLTWMDAETKKKAEEKALAIKERIGYPDDIISNENKLNNEYLELNYKEEEYFENIIQNLKFSQSKQLKKLREKVDKDEWISGAAVVNAFYSSGRNQIVFPAGILQPPFFSARQSNSLNYGGIGMVIGHEITHGFDDNGRNFNKDGDLVDWWTQQSANNFKDQSQCMVYQYGNFTWDLAGGQHLNGINTLGENIADNGGIGQAYRAYQNYVKKNGEEKLLPGLDLNHKQLFFLNFAQVWCGTYRPEYAVNSIKTDVHSPGNFRIIGTLQNSAEFADAFHCRKNSYMNPERKCRVW
modifications: recombinant, expressed in 293 cells
notes: rat enkephalinase expressed from plasmid pCISrENK in human embryonic kidney (293) cells and purified
How did the “enkephalinase activity of expressed material” value turn out when B1 was run?
The value was “biologically active”.

From patent US5780025A, “Compositions and methods for the synthesis and assay of enkephalinase” (Genentech, Inc., priority 1993, dated 1998)
